Measured values published in the nanobody polyreactivity screen of Harvey et al. (2022).

Test: yeast display, Sf9 membrane polyspecificity reagent, FACS + sequencing; frameworks hold sequencing errors
Procedure, shortened: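 Galactose-induced (36–48 hours) yeast carrying a synthetic nanobody display library were exposed to 10% biotinylated, detergent-solubilized Sf9 membrane reagent at 4 °C for 1 hour. FACS followed streptavidin microbead enrichment, using low and high (top ~1%) gates for expression (anti-HA) and reagent binding (streptavidin). Colony PCR, MiSeq 2 × 250 sequencing and CDR-length filtering followed. Labels for polyreactivity reflect the gate of origin.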

Row | Sequence | polyreactivity (PSR sort gate)
1 | QVQLVESGGGLVQAGGSLRLSCAASGRIFSYNAMGWDRQAPGKERELVSAISYGGGRTYYADSVKGRFTISRYNAKNTVYLQMNSLKPEDTAVYYCNRYGRQYDFFYWGQGTQVTGSS | high polyreactivity
2 | QVQLVESGGGLVQAGGSLRLSCAASGSTSRYYDMGWYRQAPGTERELVAAITWSGGTTYYADSVKGRFTISRDNAKNTVYLQMNSLKPEDTAVYYCAASRRGGLYTRYHYWGQGTQVTVSS | low polyreactivity
3 | QVQLVDSGGDLVKAGGSLRLSCDASGSTFRDYDMGWYRQAPGKERELVDAITGSGSSTYYADSVKGRFTISRDNAKNTVYLQMNSLKPEDTAVYYCAATWVVSYRVYRSYYWGQGTQVTVSS | low polyreactivity
4 | QVQHVESGGGLVQAGGSLRLSCAASGSTFGPNAMGWYRQAPGKERELVAAINTRGGSTYYADSVKGRFTISRDNAKNTVYLQMNSLKPEDTAVYYCAAEYVVWYLDRFNYWGQGTQVTVSS | high polyreactivity
5 | QVQLVESGGGLVQAGGSLRLSCAASGRTFYRKAMGWYIQAPGKEREFVAVISVSGGSTYYADSVKGRFTISRDNAKITVYLQMNSLKPEDTAVYYCAKRGPVRKTAYDYWGQGTQVTVSS | low polyreactivity
6 | QVQLVESGGGLVQAGGSLRLSCAASGLIFKSYAMGWYRQAPGKERELVAAISSGGTTYYADSVKGRFTISRDNAKNTVYLQMNSLKPEDTAVYYCAAYFKQPVEPCEYWGQGTQVTVSS | high polyreactivity
7 | QVQLVESGGGLVQAGGSLRLSCAASGRIFGLYAMGWYRQATGKERELVAAISSSGGRTYYADSVKGRFTISRDNAKNTVYLQMNSLKPEDTAVYYCAAVYYYRRDGNGYWGQGTQVTVSS | high polyreactivity
8 | QVQLVESGGGLVQAGGSLRLSCAASGSIFWYYAMGWYRQAPGKERELVASITSAGSTNYADSVKGRFTISRDNAKNTVYLQMNSLKPEDTAVYYCNTDDDSSSTGYYSWGQGTQVTVSS | low polyreactivity
9 | QVQHVESGGGLVQAGGSLRLSCAASGRIFPYYAMGWYRQAPGKEREFVAAITKRGGSTSYADSVKGRFTISRDNAKNTVYLQMNSLKPEDTAVYYCAAAGVYYGVRGTTYAYDYWGQGTQVTVSS | low polyreactivity
10 | QVQLVESGGGLDQAGGSLRLSCAASGSTLPVYALGWNRQAPGKERELVAAITDSGGNTYYADSVKGRFTISRDNAKNTVYLQMNSLKPEDTAVYYCNADAQSTSGYGYYAPYWMDYWGQGTQVTVSS | low polyreactivity
11 | QVQLVESGGGLVQAGGSLRLSCAASGRIFRYNAMGWYRQAPGKERELVAAITQSGGNTYYADSVKGRFTISRDNAKNTVYLQMNSLKPEDTAVYYCAAATRQFAGQRYGYWGQGTQVTVSS | high polyreactivity
12 | QVQLVESGGGLVQAGGSLRLSCAASGRILTFNTMGWYRQAPGKERELVAAIRSGGSTYYADSVKGRFTISRDNAKNTVFLQMNSLKPEDTAVYYCRGMGYWGQGTQVTVSS | high polyreactivity
13 | QVQLVESGGGLVQAGGSLRLSCAASGSTFGWYTMGWYRQAPGKERELVAAINYSGGSTYYADSVKGRFTISRDNAKNTVYLQMISLKPEDTAVYYCAADGTWSIYGGLYYWGQGTQVTVSS | low polyreactivity
14 | QFQLVESGGGLVQAGGSLRLSCAASGFTFSGYAMGWYRQAPGKERELVAAINWRGDSTYYADSVKGRFTISRDNAKNTVYLHMNSLKPEDTAVYYCYVVLGPQRYSTDYGYWGQGTQVTVSS | high polyreactivity
15 | QLQLVESGGGLVQAGGSLRLSSAASGFTFSIYAMGCYRQAPGKERELVAAINFGGGGTYYADSVKGRFTSSRDIAKNTVYLQMNSLKAEVTAVYDCAADYCYDYYSTEYDYWGQGTQVTVSS | low polyreactivity
16 | QVQLVESGGGLVQAGGSLRLSCAASGYTFKYYTMGWSRQAPGKERELVAAITGGGSTYYADSVKGRFTISRDNAKNTVYLQMNSLKPEDTAVYYCAATVLYGYHKAYDYWGQGTQVTVSS | high polyreactivity

Row | Sequence | polyreactivity (PSR sort gate)
17 | QVQLVESAGGLVQAVGSLRLSCDASGSTFSGNDMGWYRQAPGKERELVAAITSSGGSTYYADSVKGRFTISRDNAKNTVYLQMNSLKPEDTAVYYCAAKSRRTRRSYYWGQGTQVTVSS | high polyreactivity
18 | QVQLVESGGGLLQAGGSLRLSCAASGSIFRRNAMGWYRQAPGTERELVACISGGGSTYYADSVKGRFTKSRDNAKNNVYLQLNSLNPEDTAVYYCATDKHYRWAVFDYWGQGTQVTVSS | low polyreactivity
19 | QVQLVESGGGLVQAGGSLRLSCAASGHIFYAYAMASYRQAPGKERELVASITYRGVSTYYADSVKARFTISRDNAKNTVYLQMHSLKPEDTAVYYCAAGRSRYLWFGRDFDYWGQGTQVTVSS | low polyreactivity
20 | QVQLVESGGGLVQAGGRLRLTCAASGSIFEGYAMGWYRQAPGKERELGARITSDDDSTYYADSVKGRFTISRDNAKNSVYLQMKSLKPEDTAVYYCNAVYYWTSLAMDSWGQGTQVTVSS | low polyreactivity
21 | QVQLVESGGRLVQAGGSLRLSCAASGFSFRGNAMGWYRQAPGKERELVATISRGGNTNYADSVKGRFTISRDNAKNTVYLQMNSLKPEDTAVYYCAAVSYIRSKVAYNYWGQGTQVTVSS | low polyreactivity
22 | QVQLVESGGGVVQAGGTLRLSCAASGSLFPYNVMGWYRQAPGKERELVAVITGSTGRTYYADSVKGRFTISRDNAKNTVYLQMNSLKPEDTAVYYCAKRSYWAPYDYWGQGTQVTVSS | high polyreactivity
23 | QVQLVESGGGLFQAGGSLRLSCAPSGRIFRYNAMGWYRQAPGKERELVASISGSGGSTYYADSVKGRFTISRDNAKNTVYLQMNSLTPEDTAVYYCAAQWRYQYPESLESYYWGQGTQVTVSS | high polyreactivity
24 | QVQLVESGGGLVQAGGSLRLSCAASGNIFETNAMGWYRQAPGKERELVAAITRSGGSTYYADSVKGRFTISRDNAKNTVYLQMNSLKPEDTAVYYCAYYPYGYDYWGQGTQVTVSS | high polyreactivity
25 | QVQLVESGGGLVQAGGSLRLSCAASGSIFGGYAMGWYRQAPGKERELVAAISRTGGRTYYADSVKGRFTISRDNAKNTVYLQMNSLKPEDTAVYYCAARVVHQSRYSYEYWGQGTQVTVSS | high polyreactivity
26 | QLQLVESGGGLVQAGGSLRLSCAASGSIFDVYTMGWYRQAPGKERELVAAINTCGGSTYYADSVKGRFTISRDNAKNTVYLQMNSLKPEDTAVYYCAASVYHYGPLYYWGQGTQVTVSS | low polyreactivity
27 | QVLLVESGGGLVQAAGSLRLSSAASGRIFASYPLGWYRQAPGKERELVAAISKSGGRTYYADSVKGRFTISRDNAKNTVYVQMNSLKPVDTAVYDCAAFFWTRSGTPNFDYWGQGTQVTVSS | high polyreactivity
28 | QVQLVESGGGLVQAGGSLRLSCAASGLIFLTYARGWYRQAPGKERELVATISGSTGGTYYADSVKGRFTISRDNAKNTVYLQMNSLKPEDTAVYYCNASVFQSEYDYWGQGTQVTVSS | low polyreactivity
29 | QVQLVESGGGLVQAGGSLRLSCAASGITFDDYAMGWYRQAPGKERELVAAISVSGGDTYYADSVKGRFTISRDNAKNTVYLQMNSLKPEDSAVYYCAAEEVSPRWYDYWGLGTQVTVSS | low polyreactivity
30 | QVQLVESGGGLVQAGGSLRLSCAASGSIFDWNAMGWYRQAPGKERELVAAISGTGGTKYADSVKGRFTISRDNAKNTVYLQMISLKPEDTAVYYCAVGLVPLRDGWHFYYEFDSWGQGTQVTVSS | low polyreactivity
31 | QVQLVESGGGLVQAGGSLRLSCAASGSIFSRNAMGWYRQAPGTERELVAAITDSTGTTYYADSVKGRFTISRDNAKNTVYLQMNSLKPEDTAVYYCNAVGVPQGNFYVRGDDYWGQGTQVTVSS | low polyreactivity
32 | QVQLEESGGGLVQAGGSLRLSCAASGSIFSIYAMGWYRQAPGKERELVASITRSSGRTYYADSVKGRFTISRDNAKNTVYLQMNSLKPEDTAVYYCAKDYIPLALDADDYWGQGTQVTVSS | low polyreactivity
